The results in this text go back to the nanobody polyreactivity screen of Harvey et al. (2022).

The nature of the data set: yeast display, Sf9 membrane polyspecificity reagent, FACS + sequencing; frameworks hold sequencing errors. The essentials: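 In a synthetic yeast display library (Saccharomyces cerevisiae BJ5465), nanobody expression was induced with galactose for 36–48 hours. FACS gates were set low and high (top ~1%) using anti-HA fluorescence for expression and streptavidin fluorescence for binding of the Sf9 membrane reagent. Each polyreactivity label is drawn from the gate of origin.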
As to “QVQLVESGGGLVQAGGSLRLSCAASGGIFGGYAMGWYRQAPGKDREFVAAISRRGGSTYYADSVKGRFTISRDNAKNTVYLQMNSLKPEDTAVYYCAADRYPSLYDYWGQGTQVTVSS”, the “polyreactivity (PSR sort gate)” value is given as “high polyreactivity”.
For “QVQLVESGGGLVQAGGSLRLSCAASGSIFRLYVMGWYRQAPGKERELVATITRSGGNTYYADSVKGRFTISRDNAKNTVYLQMNSLKPEDTAVYYCAAQSAKSGFYPYNRYDYWGQGTQVTVSS”, the “polyreactivity (PSR sort gate)” value is on record as “low polyreactivity”.
In the case of “QVQLVESGGGLVQAGGSLRLSCAASGSTFDPNTMGWYRQAPGKERELVAAITSSTASTYYADSVKGRFTISRDNAKNTVYLQMNSLKPEDTAVYYCAADSEQDNLRYYRWVWYYYWGQGTQVTVSS”, the “polyreactivity (PSR sort gate)” value is reported as “low polyreactivity”.
Then “QVHLQESGGGLVQAGGSLRLSCAASGTISQEDWMGWYRQAPGKEREFVAAIGLGSNTNYADSLKGRFTISRDNAKNSVYLQKNSLKPEDTAVYYFAVSVWQYSDHVYRGQGTQVTVSS”, with “low polyreactivity”.
For “QVQLVESGGGLVQAGGSLRLSCAASGSIFDVYTMGWYRQAPGKERELVAAINTGGGSTYYADSVKGRFTISRDNAKNTVYLQMNSLKPEETAVYYCAASVYHYGPLYYWGQGTQVTVSS”, the “polyreactivity (PSR sort gate)” value is on record as “low polyreactivity”.
As for “QVQLVESGGGLVQAGGSLRLSCAASGRTFLIYAMGWYRQAPGKERELVAAITNGVDSTYYADSVKGRFTISRDNAKNTVYLQMNSLKPEDTAVYYCNADTVVEWYSPSREYDYWGQGTQVTVSS”, the “polyreactivity (PSR sort gate)” value is given as “low polyreactivity”.
Consider “QVQLVESGGGLVQAGGSLRLSCAASGSTSYNAMGWYIQAPGKERELVAAISDGGGSTYYADSVKGRFTISRDNAKNTVYLQMNSLKPEDTAVYYCAADTITGDGYWGQGTQVTVSS”, for which the “polyreactivity (PSR sort gate)” value was “low polyreactivity”.
Next, “QVQLVESGGGLVQAGGSLRLSCAASGSILYTYAMGWYRQAPGKERELVASISSNAGSTYYADSVKGRFTISRDNAKNTVYLQMNSLKPEDTAVYYCNKVYGGGTYDYWGQGTQVTVSS”: “low polyreactivity”.
Then “QVQLVESGGGLVQAGGSLRLSCAASGSTFWFNAMGWYRQAPGKERELVAAISSTGSTNYADSVKGRFTISRDNSKNTVYLQMNSLKPEDTAVYYCATQEGPHKLDPRGYYWGQGTQVTVSS”, with “low polyreactivity”; and “QVQLVESGGGLVQAGGSLRLSCAASGSIFYNNAMGWYRQAPGKERELVATISDGGGSTYYADSVKGRFTISRDNAKNTVYLQMNSLKPEDTAVYYCAAPYYWGQGTQVTVSS”, with “low polyreactivity”; and “QVQLVESGGGLVQAGGCLRLSGAASVYTYRKYAMGWSRQAPGNERELVAAISASGGSTYYADSVKGRFTISRDKAKNTVYLPMNSLKPEDTAVYYCAKVPVTVYSRPFDYWGQGTQVTVSS”, with “high polyreactivity”.
Take “QVQLVESGGGLVQAGGSLRLSCAASGSIFLRNAMGWYRQAPGKERELVAAITSNGGRTYYADSVKGRFTISRDNAKNTVYLQMNSLKPEDTAVYYCARVTRLGGGDYDYWGQGTQVTVSS”: the “polyreactivity (PSR sort gate)” value is reported as “high polyreactivity”.
“QVQLVESGGGLVQAGGSLRLSCAASGFIIVYYAMGWYRQAPGKERELVAAISRSGGSTYYADSVKGRFTISRDNAKNTVYLQMNSLKPEDTAVYYCNAVNVLAPSRGRRYDYWGEGTQVTVSS”: the “polyreactivity (PSR sort gate)” value is recorded as “high polyreactivity”.
Next, “QVQLVESGAGLFQAGGSLRLSCAASGRIFNQYGMAWYRQAPGKERELVAAIRSGDSTNYADSVKGRFTISRDNAKNTVFLQMNSLKPEVTAVYYCARDRPGDYDGYDYCGQGTQVTVSS”: “low polyreactivity”; “QVQLVESGGGLVQAGGSLRLSRASSGVISYRNAMGWYRKAPGKERQLVASITSSGGRTYYADSVKGRFTISRDYATNSVFLQMNSLKPEDTAVYYCADDNWYKKLKRPSAYDYWGQGTQVTVSS”: “high polyreactivity”.
In the case of “QVQLVESGGGLVQAGGSLRLSCAASGSIFVSYAMGWYRQAPGKERELVAAITVSGGSTYYADSVKGRFTISRDNAKNTVYLQMNSMKPEDTAVYYCAADSWDDWVVEFYYWGQGTQVTVSS”, the “polyreactivity (PSR sort gate)” value is listed as “low polyreactivity”.
Next, “QVQLVESGGGLVQAGGSLRLSCAASGSIFYGYAMGWYRQAPGRERELVAAIRYRGGRTDYGDSVKGRFTISRDNAKKTVYLQMNSLKPEDTAVYYCAKDLIRYGYLTYVYWGQGTQVTVSS”: “high polyreactivity”.
As for “QVQLVESGGGLVQAGGSLRLSCAASGFTFGKYAMGWYRPAPAKERELVAAISRSGGSTYYADSVKGRFTISRDIAKNTVYLQMNSLKPEDTAVYYCAAYHPIQEYDYWGQGTQVTVSS”, the “polyreactivity (PSR sort gate)” value is given as “high polyreactivity”.
In the case of “QVQRVESGGGLVQAGGSLRLSCAASGSIFGYYAMGWSRQAPVKERELVAAITRSCGSTYYADSVKGRFTISRDNAKTTVYLQMNSLKPEDTAVYYCNAVRYAVRLPAFPGYDYLGQGTQVTVSS”, the “polyreactivity (PSR sort gate)” value is reported as “high polyreactivity”.
In the case of “QVQLVESGGGLVQAGGSLRLSCAASGITFGPNAMGWYRQAPGKERELVAAISWRGGSTYYADSVKGRFTISRDNAKNTVYLQMNSLKPEDTAVYYCAKVQIPASYIRYDYWGQGTQVTVSS”, the “polyreactivity (PSR sort gate)” value is reported as “low polyreactivity”.
On to “QVQLVETGGGLVKAGGSLRLSCAASGRIFLVNDMGWYRQAPGKERELVARINGGITNYADSVKGRFTISRDNAKNTVYFQMISLKPEDTAVYYCAARSRKYYSYYYWGQGTQLTVSS”, for which the “polyreactivity (PSR sort gate)” value was “high polyreactivity”.
Take “QVQLVESGGGLVQAGGSLRLSCAASGRTFRLYAMGWYRQAPGKERELVAAITRGGRTNYADSVKGRFTISRDNAKNTVYLQMNSLKPEDTAVYYCAARYVEGHPDYYYWGQGTQVTVSS”: the “polyreactivity (PSR sort gate)” value is given as “low polyreactivity”.
As to “QVQLVESGGGLVQAGGSLRLSCAASGSIFVYYAMGWYRQAPGKERELVAAIDVSDGGTYYAESVKGRFTISRDNAKNTVYLQMNSLKPEVTAVYYCAADQGIDVPYIGYDYWGQGTQVTVSS”, the “polyreactivity (PSR sort gate)” value is “high polyreactivity”.
Then “QVQLVESGGGLVQAGGSLRLSCAASGLIFYYYTMGWYIQAPGKVRELVAAISSAGSTYYADSVKGRFTISRDNAKNTVYLQMNSLKPEDTEVYYCATRSQAQYTRYYGYRQFYYWGQGTQVTVSS”, with “high polyreactivity”; and “QVHLVESGGGLVQAGGSLRLSCAASGSIFVHYAMGWYRQAPGKERELVATISSSGGSTYYADSVKGRFTISRDNAKNTVYLQMKSLKPEDTAVYYCAADWTLDPSYGYYADDYWGQGTQVTVSS”, with “low polyreactivity”.
Turning to “QVQLVESGGGLVQAGGSLRLSCAASGSTFRTYAMGWYRQAPGKERELVADITWRGGSTYYADSVKGRFTISRDNAKNTVYLQMNSLKPEDTAGYYCATDRGPEVVLYDYWGQGTQVTVSS”, the “polyreactivity (PSR sort gate)” value is recorded as “low polyreactivity”.
On to “QVQLVESGGGLVQAGGSLRLSCAASGRILGSYAMGWYRQAPGKERELVAGISWRGGRTYYADSVKGRFTISRDNAKNTVYLQLNSLKPEDTAVYYCATRSSSRKYGYWGQGTQVTVSS”, for which the “polyreactivity (PSR sort gate)” value is on record as “high polyreactivity”.
Next, “QVQLVESGGGLGQAGGSLRLSCAASGFTFTYNDMGWYRQAPGKEREFVAAISSTGGSTYYADSVKGRFTISRDNAKNTVYLQMNSLKPEDTAVYYCAAEDSWYWDAWFDYWGQGTQVTVSS”: “low polyreactivity”; “QVQLVESGGGLVQAGGSLRLSCAASGRIFSQYAMGWYRQAPGKARELVAAITKSGGSTYYADSVKGRFTISRDKAKNTVYLQMNSRKPEETAVYYCAKLRSSRDYDYWGQGTQVTVSS”: “high polyreactivity”.
Then “QVQLVESGGGLVQAGGSLRLSCAASGFIFIYYAMGWYRQAPGKERELVAGITSGGSTNYADSVKGRFTISRDNAKNTVYLQMNSLKPEDTAVYYCAAGSSARWYPRYNYWGQGTQVTVSS”, with “high polyreactivity”; and “QVQLVESGGRLVQAGGTLRLSCAASGFIFTPYAMGWYRQAPGKERELVAAITWRGARTYYADSVKGRFTISRDNANNTVYLQMNSLKPEDTAVYYCATTFTGYNKEFGYWGQGTQVTVSS”, with “high polyreactivity”; and “QVQLVETEVGLDQAGGSLPLSCAASGYTFWAYAMGWYRQSPGKERELVAGISSRGSRTYYADSVKGRFTISRDNAKNTVYLQMNSLKPEDTAVYYCNALRTPPGYYPPFDYWGQGTQVTVSS”, with “high polyreactivity”.
With “QVQLVESGGGLVQAGGSLRLSCAASGSIFNGYAMGWYRQSPGKERELVAVISGSGGSTYYADSVKGRFTISRDNAKNTVYLQMNSLKPEDTAVYYCAAKPGYYGYWGQGTQVTVSS”, the “polyreactivity (PSR sort gate)” value is reported as “high polyreactivity”.
For “QVQLVESGGGIVQAGGSLRLSCAASYYDMGWYRQAPGKERELVASISSGGSTNYADSVKGRFTISRDNAKNTVYLQMNSLKPEDTAVYYCAADVADGVWVKIADEYWGQGTQVTVSS”, the “polyreactivity (PSR sort gate)” value is recorded as “low polyreactivity”.
For the sequence “QVQLVESGGGLVQAGGSLRLSCAASGRIFDDYDMGWYRQAPGKEREFVAAISTSGGSTYYADSVKGRFTISRDNAKNTVYLQMNSLKPEDTAVYYCATREYRYTGRQSRRYYWGQGTQVTVSS”, the “polyreactivity (PSR sort gate)” value is listed as “high polyreactivity”.
Turning to “QVQLVESGGGLVQAGGSLRLSCAASGNIFWGNAMGWYRQAPGKERELVAAITSIDSSTYYADSVKGRFTISRDNAKNTVYLQMNSLKPEDTAVYYCAADGDWYGYIWQSDDGYDSWGQGTQVTVSS”, the “polyreactivity (PSR sort gate)” value is “low polyreactivity”.
Regarding “QVQHVESVGRLVQAGGSLLLSCAASGSTFWIYAMGWKRQAPVKERELVAAISWRGGRTYYADSVKGRFTISRDNAKNTVYLQMYSLKPEDTGVYYCNAQKRDVSMGYWGLGTQVTVSS”, the “polyreactivity (PSR sort gate)” value is recorded as “high polyreactivity”.
As to “QVQLVESGGGLVQAGGSLRLSCAASGSIFSGYVMGWYRQAPGKERELVAAIDNSSGSTYYADSVKGRFTISRDNAKNTVYLQMNSLKPEDTAVYYCAADYYSKAYSEYDYWGQGTQVTVSS”, the “polyreactivity (PSR sort gate)” value is listed as “low polyreactivity”.
Next, “QVQLVESGGGLVQAGGSLRLSCAASGFTFISNAMGWYRQAPGKERELVAAISGRGGRTYYADSVKGRFTISRDNAKNTVYLQMNSLKPEDTAVYYCNAVFRKLHYDYWGQGTQVTVSS”: “high polyreactivity”.
As for “QVQLVESGGGLVLAGGSLRLSCAASGRIFYQNAMGWYRQAPGKERELVAGITRGGSTYYADSVKGRFTISRDNAKNTVYLQMNSLKPEETAVYYCAVAFWRTKWYDYWGQGTQVTVSS”, the “polyreactivity (PSR sort gate)” value is “low polyreactivity”.
Then “QVQLVESGGGLVQAGGSLRLSCAASGFIFGWYAMGWYRQAPGKERELVAAINWSGTSTYYADSVKGRFTISRDNAKNTVYLQMNILKPEDTAVYYCAAYFQNLPTTGYDYWGQGTQVTVSS”, with “low polyreactivity”.
